The target in data set [1] is Factor X (UniProt P00742). The data set is described as follows: cell-based or functional assay.
Data set [2] has as its target Factor X (UniProt P00742). The data set is described as follows: cell-based or functional assay. The source holds these as a separate data set.
The target of data set [3] is Factor X (UniProt P00742).

Like-named read-outs stand apart in the source and are kept apart here.

Chain of Factor X, P00742 (P00742 whole entry, looked up): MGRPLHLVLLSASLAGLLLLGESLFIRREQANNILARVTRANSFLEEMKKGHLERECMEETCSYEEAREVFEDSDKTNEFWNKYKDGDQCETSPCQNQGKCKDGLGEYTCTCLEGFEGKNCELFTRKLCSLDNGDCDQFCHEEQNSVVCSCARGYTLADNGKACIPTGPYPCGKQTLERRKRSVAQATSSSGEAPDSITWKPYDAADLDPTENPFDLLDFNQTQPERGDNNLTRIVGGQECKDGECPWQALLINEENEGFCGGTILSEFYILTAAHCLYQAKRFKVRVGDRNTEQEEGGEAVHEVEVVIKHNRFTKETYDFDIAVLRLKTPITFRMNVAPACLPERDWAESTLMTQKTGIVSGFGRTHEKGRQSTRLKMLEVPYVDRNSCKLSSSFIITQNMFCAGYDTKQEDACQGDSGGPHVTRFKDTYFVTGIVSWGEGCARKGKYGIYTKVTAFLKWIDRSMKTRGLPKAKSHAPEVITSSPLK

For FIX-CTP4 (enzyme), in the data set with Factor X [1], the Sample/plasma EC50 ratio (FIX chromogenic activity, BIOPHEN kit) turned out to be 5.35.

For FIX-CTP-CTP (enzyme), the EC50, FIX chromogenic activity (BIOPHEN kit) with Factor X [2] is 0.505 µg/mL; with Factor X [1], 0.382 µg/mL.

With FIX-CTP-CTP, in the data set with Factor X [3], the “fold decrease in the enzymatic activity (chromogenic assay)” value was “An approximately 15-fold decrease in the enzymatic activity of the FIX-(CTP)2 harvest was observed”, the “fold decrease in the enzymatic activity versus normal human pulled plasma (chromogenic assay)” value is recorded as “a 16.5-fold decrease versus normal human pulled plasma” and the “fold decrease in the enzymatic activity vs. recombinant FIX (chromogenic assay)” value is “An approximately 7-fold decrease in the enzymatic activity of FIX-CTP-CTP was observed vs. recombinant FIX”. As for FIX-CTP3 (enzyme), the Sample/plasma EC50 ratio (FIX chromogenic activity, BIOPHEN kit) in the data set with Factor X [1] is 2. As to “FIX-CTP (from UniProt P00740 47-461) (enzyme)”, in the data set with Factor X [1], the EC50, FIX chromogenic activity (BIOPHEN kit) was 1.64 µg/mL. With FIX-CTP5 (enzyme), the Sample/plasma EC50 ratio (FIX chromogenic activity, BIOPHEN kit) in the data set with Factor X [1] amounted to 2.73. As to “rhFIX (American Diagnostics) (from UniProt P00740 47-461) (enzyme)”, the EC50, FIX chromogenic activity (BIOPHEN kit) is 0.0687 µg/mL with Factor X [2] and 0.021 µg/mL in the data set with Factor X [1].

B1: rFVII-CTP (protein)
chain: AVFVTQEEAHGVLHRRRRANAFLEELRPGSLERECKEEQCSFEEAREIFKDAERTKLFWISYSDGDQCASSPCQNGGSCKDQLQSYICFCLPAFEGRNCETHKDDQLICVNENGGCEQYCSDHTGTKRSCRCHEGYSLLADGVSCTPTVEYPCGKIPILEKRNASKPQGRIVGGKVCPKGECPWQVLLLVNGAQLCGGTLINTIWVVSAAHCFDKIKNWRNLIAVLGEHDLSEHDGDEQSRRVAQVIIPSTYVPGTTNHDIALLRLHQPVVLTDHVVPLCLPERTFSERTLAFVRFSLVSGWGQLLDRGATALELMVLNVPRLMTQDCLQQSRKVGDSPNITEYMFCAGYSDGSKDSCKGDSGGPHATHYRGTWYLTGIVSWGQGCATVGHFGVYTRVSQYIEWLQKLMRSEPRPGVLLRAPFPSSSSKAPPPSLPSPSRLPGPSDTPILPQ
In the case of B1, the “FVII chromogenic activity (AssaySense Human FVII Chromogenic Activity Assay Kit)” value with Factor X, P00742 is “The addition of the CTP peptide at the C-terminal of the rFVII protein did not impair the FVII serine protease activity”.
